# Measured values from patent US20250066510A1 (Janssen / Centocor, published 2025).
# What was measured:
# [1] = molecular target: T1, human GUCY2C (guanylyl cyclase C) (human, UniProt P25092 24-1073); experiment: flow cytometry on CHO-huGUCY2C cells
# T1 construct: also called huGUCY2C; GC-C
# Description: Three (3) cell lines, Chinese hamster ovary (CHO) cell line, CHO transfected with cyno GUCY2C, and CHO transfected with human GUCY2C, were incubated with a titrating dose of GUCY2C_mAb for 60 min at 37° C., washed twice, then incubated with AF647 labeled anti human secondary for 30 minutes at 4° C. Cells were washed twice again, resuspended and acquired in a flow cytometer. Specific antibody binding was assessed in the RL1H channel for each cell line. Data presented as signal/background where background is secondary only.
# human CD3 [2] = molecular target: T2, human CD3 (human, UniProt P07766 23-207); experiment: flow cytometry on primary T cells
# T2 construct: also called CD3 epsilon; CD3 on primary human T cells
# [3] = molecular target: T1, human GUCY2C (guanylyl cyclase C); experiment: cell-based or functional assay
# [4] = molecular target: T1, human GUCY2C (guanylyl cyclase C); experiment: flow cytometry on T84 cells
# Description: One hour cell binding studies by flow cytometry were carried out at physiologically relevant temperature (37° C.) on GUCY2CxCD3 bispecific antibodies (GUCY2CxCD3 biAb-1 and GUCY2CxCD3_biAb-2), known reference GUCY2CxCD3 bispecific antibody (biAb), and Null×CD3 control molecules. The goal was to characterize and quantify specific, cell binding for GUCY2CxCD3_biAb-1 and 2. […] Maximum binding of GUCY2CxCD3 biAb-1 and 2 was higher than reference biAb.
# cynomolgus monkey CD3 = molecular target: T3, cynomolgus monkey CD3 (cynomolgus monkey, UniProt Q95LI5 22-198); experiment: not described at this place; the sentence refers to 'example 2'
# T3 construct: whole, on cells; also called cynomolgus CD3
# human CD3 [5] = molecular target: T2, human CD3; experiment: flow cytometry based Intellicyt assay on human pan T cells, MFI, 4PL fit; lower end of the printed range 108-112 nM
# Description: The affinity of CD3_spFv-1 to T cells was measured by flow cytometry based Intellicyt assay. Briefly, pan T cells were isolated from PBMC from healthy donors. Cells were incubated with titrating amounts test molecules for 1 hour, then washed. […] Cells were then washed and resuspended in 0.10% pluronic acid containing Sytox Green, then immediately analyzed in a flow cytometer. Median fluorescent intensity (MFI) was recorded (on RL1-A). The log 10 of the molecule concentration was plotted against the MFI. Best fit curves were evaluated using a 4PL algorithm (log(agonist) vs. response—Variable slope) in GraphPad Prism 9.0.
# T1 sequence (P25092 other isoform, or with tags, fused parts or gaps limits assumed): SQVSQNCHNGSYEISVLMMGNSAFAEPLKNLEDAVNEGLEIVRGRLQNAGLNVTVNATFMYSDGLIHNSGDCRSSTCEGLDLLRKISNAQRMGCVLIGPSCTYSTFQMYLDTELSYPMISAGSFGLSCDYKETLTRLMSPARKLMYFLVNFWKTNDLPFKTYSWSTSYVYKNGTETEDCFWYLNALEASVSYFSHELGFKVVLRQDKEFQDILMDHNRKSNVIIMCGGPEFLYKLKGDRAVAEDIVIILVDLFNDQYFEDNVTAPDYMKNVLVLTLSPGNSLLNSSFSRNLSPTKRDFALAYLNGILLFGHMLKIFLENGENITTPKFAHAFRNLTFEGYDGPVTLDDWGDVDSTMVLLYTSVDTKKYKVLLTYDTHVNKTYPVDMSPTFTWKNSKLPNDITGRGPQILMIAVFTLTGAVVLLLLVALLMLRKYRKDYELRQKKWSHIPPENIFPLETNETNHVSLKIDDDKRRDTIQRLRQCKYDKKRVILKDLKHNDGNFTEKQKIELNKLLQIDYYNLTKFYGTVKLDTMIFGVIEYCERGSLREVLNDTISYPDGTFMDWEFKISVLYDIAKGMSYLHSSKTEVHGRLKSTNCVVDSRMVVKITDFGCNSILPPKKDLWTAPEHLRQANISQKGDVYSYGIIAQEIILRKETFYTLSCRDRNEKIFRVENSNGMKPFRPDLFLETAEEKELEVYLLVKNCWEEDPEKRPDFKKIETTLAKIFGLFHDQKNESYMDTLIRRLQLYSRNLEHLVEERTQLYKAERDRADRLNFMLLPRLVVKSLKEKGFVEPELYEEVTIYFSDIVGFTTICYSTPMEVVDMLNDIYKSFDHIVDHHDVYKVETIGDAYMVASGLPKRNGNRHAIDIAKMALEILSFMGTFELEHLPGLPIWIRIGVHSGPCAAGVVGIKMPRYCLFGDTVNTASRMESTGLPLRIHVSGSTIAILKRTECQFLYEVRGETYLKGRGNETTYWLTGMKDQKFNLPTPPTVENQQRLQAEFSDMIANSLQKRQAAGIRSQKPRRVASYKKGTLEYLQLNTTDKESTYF
# T2 sequence (P07766 23-207 limits assumed): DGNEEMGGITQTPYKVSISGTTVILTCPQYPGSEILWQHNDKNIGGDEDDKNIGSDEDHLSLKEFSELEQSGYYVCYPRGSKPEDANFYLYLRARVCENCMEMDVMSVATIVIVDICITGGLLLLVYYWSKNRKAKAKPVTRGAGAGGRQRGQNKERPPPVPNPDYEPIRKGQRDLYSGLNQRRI
# T3 sequence (Q95LI5 22-198): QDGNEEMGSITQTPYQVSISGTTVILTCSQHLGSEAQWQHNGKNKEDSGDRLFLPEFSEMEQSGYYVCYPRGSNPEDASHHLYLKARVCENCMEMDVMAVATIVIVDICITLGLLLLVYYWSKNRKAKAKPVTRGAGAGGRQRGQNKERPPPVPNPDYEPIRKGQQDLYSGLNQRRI
binder,measurement,setting,value
"GUCY2C_mAb (antibody, V domains shown, From Ablexis Kappa mice, so a kappa light chain; also called GUCYC2_mAb) VH: QVQLQESGPGLVKPSETLSLTCTVSGASISHYYWSWIRRPAGKGLEWIGRIYTSGSTNYNPSLKSRVTVSVDTSKNQFSLKLSSVTAADTAVYYCARDRYTGYFDLWGRGTLVTVSS VL: not shown",EC50,[1],4.6 nM
"GUCY2CxCD3_biAb-1 (bispecific antibody, human IgG1, kappa, L234A L235A, HC1/LC1 form the GUCY2C Fab arm (IgG1, L234A/L235A/D265S, hole T366S/L368A/Y407V); HC2 is CD3_spFv-1 (VL2-linker-VH2) fused to IgG1 Fc (L234A/L235A/D265S, knob T366W); also called GUCY2CxCD3 bisp-Ab1; GUCY2C-CD3-bisp-Abl) heavy: QVQLQESGPGLVKPSETLSLTCTVSGASISHYYWSWIRRPAGKGLEWIGRIYTSGSTNYNPSLKSRVTVSVDTSKNQFSLKLSSVTAADTAVYYCARDRYTGYFDLWGRGTLVTVSSASTKGPSVFPLAPSSKSTSGGTAALGCLVKDYFPEPVTVSWNSGALTSGVHTFPAVLQSSGLYSLSSVVTVPSSSLGTQTYICNVNHKPSNTKVDKKVEPKSCDKTHTCPPCPAPEAAGGPSVFLFPPKPKDTLMISRTPEVTCVVVSVSHEDPEVKFNWYVDGVEVHNAKTKPREEQYNSTYRVVSVLTVLHQDWLNGKEYKCKVSNKALPAPIEKTISKAKGQPREPQVYTLPPSREEMTKNQVSLSCAVKGFYPSDIAVEWESNGQPENNYKTTPPVLDSDGSFFLVSKLTVDKSRWQQGNVFSCSVMHEALHNRFTQKSLSLSPGK light: not shown EIVLTQSPATLSASPGERVTLSCSASSSVSYMNWYQQKPGCAPRRWIYDSSKLASGVPARFSGSGSGRDYTLTISSLEPEDFAVYYCQQWSRNPPTFGGGTKVEIKGGGSGGSGGCPPCGGSGGQVQLVQSGAEVKKPGSSVKVSCKASGYTFTRSTMHWVKQAPGQGLEWIGYINPSSAYTNYNQKFQGRVTLTADKSTSTAYMELSSLRSEDTAVYYCASPQVHYDYAGFPYWGCGTLVTVSSEPKSSDKTHTCPPCPAPEAAGGPSVFLFPPKPKDTLMISRTPEVTCVVVSVSHEDPEVKFNWYVDGVEVHNAKTKPREEQYNSTYRVVSVLTVLHQDWLNGKEYKCKVSNKALPAPIEKTISKAKGQPREPQVYTLPPSREEMTKNQVSLWCLVKGFYPSDIAVEWESNGQPENNYKTTPPVLDSDGSFFLYSKLTVDKSRWQQGNVFSCSVMHEALHNHYTQKSLSLSPGK",EC50,human CD3 [2],108 nM
same,"Tumor killing EC50 (nM), HT-55",[3],0.8 nM
same,"Tumor killing EC50 (nM), LS1034",[3],0.04 nM
same,EC50,[4],12 nM
"CD3_spFv-1 (scFv, also called CD3 arm of GUCY2CxCD3_biAb-1; anti-CD3 spFv) scFv: EIVLTQSPATLSASPGERVTLSCSASSSVSYMNWYQQKPGCAPRRWIYDSSKLASGVPARFSGSGSGRDYTLTISSLEPEDFAVYYCQQWSRNPPTFGGGTKVEIKGGGSGGSGGCPPCGGSGGQVQLVQSGAEVKKPGSSVKVSCKASGYTFTRSTMHWVKQAPGQGLEWIGYINPSSAYTNYNQKFQGRVTLTADKSTSTAYMELSSLRSEDTAVYYCASPQVHYDYAGFPYWGCGTLVTVSS",binding result,cynomolgus monkey CD3,no binding
same,EC50,human CD3 [5],108 to 112 nM
